Here are results for one molecule from patent publication US20210054097A1 (Novo Nordisk, published 2021).

The target of test [1] is T1, human plasma-derived Factor X zymogen (human, UniProt P00742 41-179; P00742 183-488). Briefly: cell-based or functional assay.
The target in test [2] is T1, human plasma-derived Factor X zymogen. The experiment in a line: apparent KD fitted from FXa generation assay. How it is done: The ability of the monovalent anti-FX Nanobody® (Nb) to promote FIXa-mediated FX-activation was determined in the presence of a procoagulant phospholipid membrane according to the principles described by Scheiflinger et al. (2008) J Thromb Haemost, 6:315-322. A Fab of mAb 13F62 (IgG1 isotype, variable sequences identified by SEQ ID NO:6 and 7), also found to bind the activation peptide, were included for comparison. Moreover, anti-FX antibodies as disclosed in U.S. Pat. No. 9,334,331 (J327 and L404-k in said publication), corresponding to the anti-FX arm of ACE910); and more recently in WO2018/021450 (J327 D31H and JYL280 in said publication) and WO2018/098363 (BIIB-12-917 represented by SEQ ID NO:427 and 615 in said publication) are stated to be suitable for use as part of anti-FIX/anti-FX bispecific FVIII mimetic compounds were, furthermore, included for comparison.
Each compound was tested individually in a concentration range from 0-1000 nM, 0-2000 nM, 0-4000 nM or 0-8000 nM by pre-incubation with 1-1.5 nM human plasma-derived FIXa (Haematologic Technologies Inc, USA) and 500 μM 25:75 phosphatidyl serine:phosphatidyl choline phospholipid vesicles (Haematologic Technologies Inc, USA) in assay buffer (50 mM HEPES, 100 mM NaCl, 5 mM CaCl₂, 0.1% (w/v) PEG8000, 1 mg/mL bovine serum albumin, pH 7.3) for 10 minutes. The reaction was initiated by addition of human plasma-derived FX (Haematologic Technologies Inc, USA) to a final concentration of 100 nM and a reaction volume of 50 μL. Following 20 minutes activation at room temperature while agitated (1000 RPM), the reaction was quenched by addition of 25 μL quench buffer (50 mM HEPES, 100 mM NaCl, 60 mM EDTA, 0.1% (w/v) PEG8000, 1 mg/mL bovine serum albumin, pH 7.3). The amount of FXa generated was determined by addition of 25 μL 2 mM S-2765 chromogenic substrate for FXa (Chromogenix, Sweden) and chromogenic substrate conversion was followed by measuring absorbance at 405 nm for 10 minutes in a microplate reader. The observed change in 405 nm absorbance (ΔAbs405/min) was fitted to the quadratic binding equation (eq. 1) to obtain the peak stimulatory activity and EC50.

T1 sequence (P00742 41-179, chain 1 of 2): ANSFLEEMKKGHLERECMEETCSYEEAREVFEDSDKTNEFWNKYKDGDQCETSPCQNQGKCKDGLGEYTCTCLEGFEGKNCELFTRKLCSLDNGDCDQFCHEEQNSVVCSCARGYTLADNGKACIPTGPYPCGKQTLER
T1 sequence (P00742 183-488, chain 2 of 2): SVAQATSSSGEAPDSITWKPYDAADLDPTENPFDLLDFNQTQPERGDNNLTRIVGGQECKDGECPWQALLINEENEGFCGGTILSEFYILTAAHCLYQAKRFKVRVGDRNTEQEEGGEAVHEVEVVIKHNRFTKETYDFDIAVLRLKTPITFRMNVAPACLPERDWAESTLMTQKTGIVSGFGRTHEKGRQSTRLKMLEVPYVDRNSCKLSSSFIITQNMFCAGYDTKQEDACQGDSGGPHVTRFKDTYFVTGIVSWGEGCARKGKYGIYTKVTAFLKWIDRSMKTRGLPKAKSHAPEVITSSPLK

B1: Fab of mAb 13F62 (Fab, V domains shown)
VH: EVQLVESGGGQVKPGGSLRLSCAASGFTFSTSSIYWVRQAPGKGLEWVSSISSGSSYIFYADSVKGRFTISRDNAKNSLFLQMNSLRAEDTAVYYCVSGYSRLLDYWGQGTLVTVSS
VL: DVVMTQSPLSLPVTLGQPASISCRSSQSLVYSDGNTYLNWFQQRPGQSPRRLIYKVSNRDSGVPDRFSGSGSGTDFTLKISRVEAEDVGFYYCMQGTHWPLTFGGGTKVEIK
notes: Fab of an IgG1 antibody; also called Fab of 13F62
For B1, the “Increase in FX activation (fold)” value in test [1] amounted to 1.5 fold. Moreover, the Kd in test [2] came out at 3.1 nM.
